# Experimental data from article PMC7094341.
# Biological target: SARS-CoV papain-like protease (PLpro), trypsin-trimmed product of P-PLpro(C2)-His6 (SARS-CoV)
substance,measurement,value
ISG15-AMC (full-length) (from UniProt P05161 1-157),"kcat/KM of hydrolysis of ISG15-AMC by PLpro (fluorescence, pH 7.8, 25 °C)",602000 M⁻¹ s⁻¹
